Results as given in the supplement of paper PMC10126150.
± gives the standard deviation of the averaged measurements.

System: ATP
Assay: switch fluorescence ratio, 500 uM ATP over buffer (Cy3 cluster intensity, sum of 5 cycles each) (fold (ratio)); higher = stronger signal-on switching upon ATP binding; sequences stand for … in TCGTCGGCAGCGTCAGATGTGTATAAGAGACAGTTTTTTTTTTTTTTTTTTTTTTTTT…TC
Details: aptamer strand: ATP DNA aptamer (quencher-CACCTGGGGGAGTATTGCGGAGGAAGG + anchor), 100 nM annealed; ATP concentration: 500 uM
How it was run: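 Clusters with intensities outside 100-1000 RFU were excluded. The remaining Cy3-labelled switching-strand clusters on a modified Illumina MiSeq flow-cell had been annealed to 100 nM quencher-labelled ATP aptamer and imaged in selection buffer, then after 15 min with 500 uM ATP at 22 °C, for five cycles separated by NaOH stripping and re-annealing. The fluorescence ratio, averaged per switch-domain sequence, is each cluster's summed target-cycle Cy3 intensity over its summed buffer-cycle Cy3 intensity.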
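Further: ATP exposure 15 min at 22 °C before imaging.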

| Sequence | switch fluorescence ratio |
| --- | --- |
| TGACTAGGGG | 0.949 ± 0.1 |
| TGACTGAAAA | 1.009 ± 0.007 |
| TGACTGGGTA | 1 ± 0.021 |
| TGACTGTTTG | 0.984 ± 0.04 |
| TGACTTAACT | 1.09 ± 0.034 |
| TGACTTGAGC | 1.01 ± 0.058 |
| TGACTTGGG | 0.935 ± 0.02 |
| TGACTTGGGG | 0.995 ± 0.033 |
| TGAGAAAGGG | 0.982 ± 0.0019 |
| TGAGAAAGGT | 0.965 ± 0.044 |
| TGAGAAGGGA | 1.02 ± 0.22 |
| TGAGAAGTCA | 0.9785 ± 0.0066 |
| TGAGAATGTT | 1.09 ± 0.19 |
| TGAGAGGTCT | 1.017 ± 0.0097 |
| TGAGAGTCAG | 0.986 ± 0.017 |
| TGAGAGTTAT | 1 ± 0.051 |
| TGAGAGTTTT | 0.978 ± 0.036 |
| TGAGATAACA | 0.9943 ± 0.0033 |
| TGAGATACGA | 1.0108 ± 0.0001 |
| TGAGATCCCT | 1.03 ± 0.039 |
| TGAGATGGTC | 1.004 ± 0.01 |
| TGAGATTTTG | 0.983 ± 0.045 |
| TGAGCCATCG | 0.987 ± 0.02 |
| TGAGCGAGTG | 0.957 ± 0.028 |
| TGAGCGGCAA | 1.2 ± 0.22 |
| TGAGCGGTTG | 1 ± 0.018 |

| Sequence | switch fluorescence ratio |
| --- | --- |
| TGAGCGTCGG | 0.968 ± 0.051 |
| TGAGCGTTGG | 0.9987 ± 0.0062 |
| TGAGCTATTG | 0.997 ± 0.015 |
| TGAGGAAGAC | 1.09 ± 0.014 |
| TGAGGAATTC | 1 ± 0.017 |
| TGAGGAGGG | 0.97516 ± 0.00046 |
| TGAGGAGGGA | 0.987 ± 0.013 |
| TGAGGATTTG | 1.02 ± 0.011 |
| TGAGGCCCAG | 1.01 ± 0.019 |
| TGAGGCCGGG | 1 ± 0.021 |
| TGAGGGGCAG | 0.984 ± 0.013 |
| TGAGGGGGCG | 1.03 ± 0.11 |
| TGAGGGGGCT | 0.9862 ± 0.0034 |
| TGAGGGGTGG | 0.961 ± 0.038 |
| TGAGGGTGGT | 0.981 ± 0.0012 |
| TGAGGGTGTT | 0.998 ± 0.011 |
| TGAGGGTTGC | 1.01 ± 0.018 |
| TGAGGTAGGC | 1.05 ± 0.024 |
| TGAGGTCAGA | 1.03 ± 0.013 |
| TGAGGTGAAA | 0.976 ± 0.03 |
| TGAGGTGCGT | 0.995 ± 0.033 |
| TGAGGTTTAG | 1.02 ± 0.028 |
| TGAGTAGGGG | 0.994 ± 0.017 |
| TGAGTATTAG | 0.999 ± 0.033 |
| TGAGTATTGC | 0.969 ± 0.04 |
| TGAGTATTGG | 0.99 ± 0.027 |

| Sequence | switch fluorescence ratio |
| --- | --- |
| TGAGTCAAGC | 1.01 ± 0.076 |
| TGAGTGAAAT | 1.1 ± 0.014 |
| TGAGTGAATG | 0.9787 ± 0.0042 |
| TGAGTGATGT | 1.01 ± 0.023 |
| TGAGTGCAGC | 1.08 ± 0.12 |
| TGAGTGGATG | 0.971 ± 0.075 |
| TGAGTTAGGC | 1.04 ± 0.054 |
| TGAGTTCGTA | 1.02 ± 0.012 |
| TGAGTTGAAG | 0.9869 ± 0.0056 |
| TGAGTTTGGT | 0.97 ± 0.018 |
| TGATAATTTG | 1.006 ± 0.01 |
| TGATACATAA | 1.028 ± 0.0097 |
| TGATACTGGG | 1.06 ± 0.06 |
| TGATACTTAG | 1.061 ± 0.0084 |
| TGATAGACAT | 0.988 ± 0.019 |
| TGATAGGATT | 0.9764 ± 0.0021 |
| TGATAGGGTG | 1.03 ± 0.053 |
| TGATATAGGA | 1.01 ± 0.064 |
| TGATATATTT | 1.02 ± 0.046 |
| TGATATTGGT | 1.01 ± 0.021 |
| TGATCAAGGA | 0.997 ± 0.041 |
| TGATCATGCG | 1 ± 0.011 |
| TGATCCGGAG | 1.08 ± 0.038 |
| TGATCCGGAT | 1.02 ± 0.09 |
